# T1: DLG3_1, Q92796
# T1 sequence (Q92796 125-227, limits assumed, looked up): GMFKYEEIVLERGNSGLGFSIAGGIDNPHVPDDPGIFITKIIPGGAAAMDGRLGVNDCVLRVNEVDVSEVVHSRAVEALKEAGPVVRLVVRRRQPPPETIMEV
# T2: DLG3_2, Q92796
# T2 sequence (Q92796 221-321, limits assumed, looked up): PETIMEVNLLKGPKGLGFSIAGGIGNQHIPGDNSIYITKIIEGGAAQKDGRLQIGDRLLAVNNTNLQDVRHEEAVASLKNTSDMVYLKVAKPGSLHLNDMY
# T3: GRIP1_7, Q9Y3R0
# T3 sequence (Q9Y3R0 999-1096, limits assumed, looked up): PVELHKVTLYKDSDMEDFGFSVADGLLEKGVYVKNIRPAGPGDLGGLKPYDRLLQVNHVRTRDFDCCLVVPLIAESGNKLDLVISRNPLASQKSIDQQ
# T4: HTRA3, P83110
# T4 sequence (P83110 354-453, limits assumed, looked up): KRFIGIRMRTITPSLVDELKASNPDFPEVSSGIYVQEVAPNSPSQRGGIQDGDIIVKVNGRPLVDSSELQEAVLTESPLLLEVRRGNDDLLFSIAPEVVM
# T5: LIN7A, O14910
# T5 sequence (O14910 103-200, limits assumed, looked up): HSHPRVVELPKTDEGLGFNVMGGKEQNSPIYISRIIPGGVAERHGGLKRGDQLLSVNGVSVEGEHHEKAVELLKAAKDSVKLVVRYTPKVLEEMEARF
# T6: MPDZ_5, O75970
# T6 sequence (O75970 695-796, limits assumed, looked up): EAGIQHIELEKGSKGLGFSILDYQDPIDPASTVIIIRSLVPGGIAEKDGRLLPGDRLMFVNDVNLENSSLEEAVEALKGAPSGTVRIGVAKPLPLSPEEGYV
# T7: NHERF3_3, Q5T2W1
# T7 sequence (Q5T2W1 238-333, limits assumed, looked up): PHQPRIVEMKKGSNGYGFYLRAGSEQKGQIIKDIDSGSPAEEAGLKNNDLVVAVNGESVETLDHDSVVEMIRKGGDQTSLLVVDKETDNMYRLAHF
# T8: NHERF3_4, Q5T2W1
# T8 sequence (Q5T2W1 373-468, limits assumed, looked up): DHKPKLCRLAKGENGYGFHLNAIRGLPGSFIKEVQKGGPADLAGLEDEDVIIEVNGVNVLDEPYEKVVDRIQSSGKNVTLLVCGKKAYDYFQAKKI
# T9: PDZD2_2, O15018
# T9 sequence (O15018 329-429, limits assumed, looked up): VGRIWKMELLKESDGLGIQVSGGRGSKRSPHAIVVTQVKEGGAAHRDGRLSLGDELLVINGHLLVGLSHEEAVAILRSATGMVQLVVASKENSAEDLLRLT
# T10: RHPN1, Q8TCX5
# T10 sequence (Q8TCX5 508-602, limits assumed, looked up): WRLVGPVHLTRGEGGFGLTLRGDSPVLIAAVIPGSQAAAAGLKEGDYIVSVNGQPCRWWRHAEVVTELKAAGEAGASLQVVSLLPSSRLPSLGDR
# T11: SNTB1, Q13884
# T11 sequence (Q13884 107-205, limits assumed, looked up): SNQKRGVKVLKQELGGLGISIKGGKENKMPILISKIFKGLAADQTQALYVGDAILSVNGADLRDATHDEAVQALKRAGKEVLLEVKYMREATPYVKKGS
# Legend:
# Test in all cases: holdup assay
# Parameters in all cases: key: below the threshold = too weak to quantify, mostly under pKd 3.1 to 4
# CASK, O14936 = target: CASK, O14936
# DLG3_1, Q92796 = target: T1, DLG3_1, Q92796
# DLG3_2, Q92796 = target: T2, DLG3_2, Q92796
# DLG4_1, P78352 = target: DLG4_1, P78352
# FRMPD2_1, Q68DX3 = target: FRMPD2_1, Q68DX3
# FRMPD2_2, Q68DX3 = target: FRMPD2_2, Q68DX3
# FRMPD2_3, Q68DX3 = target: FRMPD2_3, Q68DX3
# GORASP1, Q9BQQ3 = target: GORASP1, Q9BQQ3
# GORASP2, Q9H8Y8 = target: GORASP2, Q9H8Y8
# GRID2IP_1, A4D2P6 = target: GRID2IP_1, A4D2P6
# GRIP1_7, Q9Y3R0 = target: T3, GRIP1_7, Q9Y3R0
# HTRA3, P83110 = target: T4, HTRA3, P83110
# Inadl_5, Q8NI35 = target: Inadl_5, Q8NI35
# Inadl_8, Q8NI35 = target: Inadl_8, Q8NI35
# LAP2, Q96RT1 = target: LAP2, Q96RT1
# LIN7A, O14910 = target: T5, LIN7A, O14910
# MAGI1_1, Q96QZ7 = target: MAGI1_1, Q96QZ7
# MAGI2_6, Q86UL8 = target: MAGI2_6, Q86UL8
# MAGI3_2, Q5TCQ9 = target: MAGI3_2, Q5TCQ9
# MPDZ_5, O75970 = target: T6, MPDZ_5, O75970
# NHERF3_3, Q5T2W1 = target: T7, NHERF3_3, Q5T2W1
# NHERF3_4, Q5T2W1 = target: T8, NHERF3_4, Q5T2W1
# PDZD2_2, O15018 = target: T9, PDZD2_2, O15018
# RHPN1, Q8TCX5 = target: T10, RHPN1, Q8TCX5
# SCRIB_2, Q14160 = target: SCRIB_2, Q14160
# SNTB1, Q13884 = target: T11, SNTB1, Q13884
# TJP1_2, Q07157 = target: TJP1_2, Q07157
# [1] = plain residues with an end cap or a label only (N-terminal biotin on a linker: ado-ado)
# [2] = plain residues with an end cap or a label only (N-terminal biotin on a linker: ahx)
# Sequence of Inadl_8, Q8NI35 (Q8NI35 1425-1530): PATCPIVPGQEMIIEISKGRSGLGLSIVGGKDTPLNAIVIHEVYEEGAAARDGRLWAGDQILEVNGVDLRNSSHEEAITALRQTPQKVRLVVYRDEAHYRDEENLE
# Sequence of MAGI3_2, Q5TCQ9 (Q5TCQ9 398-503): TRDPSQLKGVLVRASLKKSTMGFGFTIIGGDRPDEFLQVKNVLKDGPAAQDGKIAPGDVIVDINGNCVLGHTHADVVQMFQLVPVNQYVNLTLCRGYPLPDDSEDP
# Sequence of Inadl_5, Q8NI35 (Q8NI35 673-780): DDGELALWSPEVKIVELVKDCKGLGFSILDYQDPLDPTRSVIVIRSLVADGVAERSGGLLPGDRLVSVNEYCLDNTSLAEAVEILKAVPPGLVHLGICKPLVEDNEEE
# Sequence of TJP1_2, Q07157 (Q07157 181-274): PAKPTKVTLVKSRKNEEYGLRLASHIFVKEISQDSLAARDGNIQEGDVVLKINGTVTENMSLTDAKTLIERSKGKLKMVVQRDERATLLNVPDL
# Sequence of MAGI1_1, Q96QZ7 (Q96QZ7 1-106): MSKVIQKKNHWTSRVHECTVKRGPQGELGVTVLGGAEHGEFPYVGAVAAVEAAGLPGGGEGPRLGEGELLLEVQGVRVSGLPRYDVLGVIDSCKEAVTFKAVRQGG
# Sequence of GRID2IP_1, A4D2P6 (A4D2P6 1-87): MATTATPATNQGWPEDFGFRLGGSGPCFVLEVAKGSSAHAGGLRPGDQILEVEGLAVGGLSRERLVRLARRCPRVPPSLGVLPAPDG
# Sequence of MAGI2_6, Q86UL8 (Q86UL8 1141-1229): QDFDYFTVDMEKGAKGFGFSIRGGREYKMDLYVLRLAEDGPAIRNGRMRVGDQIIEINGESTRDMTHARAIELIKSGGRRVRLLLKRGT
# Sequence of CASK, O14936 (O14936 487-570): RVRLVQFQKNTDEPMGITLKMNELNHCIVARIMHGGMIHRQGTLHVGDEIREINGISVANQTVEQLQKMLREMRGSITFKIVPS
# Sequence of LAP2, Q96RT1 (Q96RT1 other isoform, or with tags, fused parts or gaps): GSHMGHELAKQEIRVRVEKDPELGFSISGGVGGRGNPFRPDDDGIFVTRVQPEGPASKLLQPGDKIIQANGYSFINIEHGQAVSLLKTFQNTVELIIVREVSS
# Sequence of SCRIB_2, Q14160 (Q14160 857-960): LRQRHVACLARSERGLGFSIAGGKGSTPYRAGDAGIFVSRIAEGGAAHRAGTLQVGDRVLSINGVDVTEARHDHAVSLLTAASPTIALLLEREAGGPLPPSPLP
# Sequence of GORASP1, Q9BQQ3 (Q9BQQ3 1-208): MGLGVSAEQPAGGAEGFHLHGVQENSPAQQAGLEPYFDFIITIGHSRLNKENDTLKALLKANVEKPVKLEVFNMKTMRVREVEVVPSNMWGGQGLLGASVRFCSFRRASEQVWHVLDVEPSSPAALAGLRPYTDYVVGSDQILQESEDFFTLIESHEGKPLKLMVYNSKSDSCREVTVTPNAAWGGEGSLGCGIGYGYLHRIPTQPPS
# Sequence of FRMPD2_3, Q68DX3 (Q68DX3 1073-1166): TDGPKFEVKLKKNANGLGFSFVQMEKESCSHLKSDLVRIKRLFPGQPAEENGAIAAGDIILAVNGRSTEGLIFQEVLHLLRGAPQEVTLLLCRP
# Sequence of FRMPD2_2, Q68DX3 (Q68DX3 944-1038): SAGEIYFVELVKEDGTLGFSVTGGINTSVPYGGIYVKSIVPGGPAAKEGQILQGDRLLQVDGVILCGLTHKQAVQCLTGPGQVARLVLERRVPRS
# Sequence of DLG4_1, P78352 (P78352 62-152): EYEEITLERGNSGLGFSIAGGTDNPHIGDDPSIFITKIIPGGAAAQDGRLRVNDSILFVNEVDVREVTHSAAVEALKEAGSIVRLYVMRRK
# Sequence of FRMPD2_1, Q68DX3 (Q68DX3 770-861): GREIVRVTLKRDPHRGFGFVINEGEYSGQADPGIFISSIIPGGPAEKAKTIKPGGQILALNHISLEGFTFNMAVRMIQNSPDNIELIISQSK
binder,measurement,setting,value
"PTPDLPQTRV [KLHDC7A, Q5VTJ3]",pKd,"CASK, O14936; [1]",below the threshold
same,pKd,"DLG3_1, Q92796; [1]",below the threshold
same,pKd,"DLG3_2, Q92796; [1]",4
same,pKd,"DLG4_1, P78352; [1]",below the threshold
same,pKd,"FRMPD2_1, Q68DX3; [1]",below the threshold
same,pKd,"FRMPD2_2, Q68DX3; [1]",3.8
same,pKd,"FRMPD2_3, Q68DX3; [1]",below the threshold
same,pKd,"GORASP1, Q9BQQ3; [1]",below the threshold
same,pKd,"GORASP2, Q9H8Y8; [1]",below the threshold
same,pKd,"GRID2IP_1, A4D2P6; [1]",below the threshold
same,pKd,"GRIP1_7, Q9Y3R0; [1]",below the threshold
same,pKd,"HTRA3, P83110; [1]",below the threshold
same,pKd,"Inadl_5, Q8NI35; [1]",below the threshold
same,pKd,"Inadl_8, Q8NI35; [1]",4.36
same,pKd,"LAP2, Q96RT1; [1]",below the threshold
same,pKd,"LIN7A, O14910; [1]",below the threshold
same,pKd,"MAGI1_1, Q96QZ7; [1]",below the threshold
same,pKd,"MAGI2_6, Q86UL8; [1]",3.61
same,pKd,"MAGI3_2, Q5TCQ9; [1]",3.79
same,pKd,"MPDZ_5, O75970; [1]",below the threshold
same,pKd,"NHERF3_3, Q5T2W1; [1]",below the threshold
same,pKd,"NHERF3_4, Q5T2W1; [1]",below the threshold
same,pKd,"PDZD2_2, O15018; [1]",3.75
same,pKd,"RHPN1, Q8TCX5; [1]",4.32
same,pKd,"SCRIB_2, Q14160; [1]",3.48
same,pKd,"SNTB1, Q13884; [1]",4.95
same,pKd,"TJP1_2, Q07157; [1]",below the threshold
"ARGPPRESEV [FAM110D, Q8TAY7]",pKd,"CASK, O14936; [1]",below the threshold
same,pKd,"DLG3_1, Q92796; [1]",4.3
same,pKd,"DLG3_2, Q92796; [1]",5.19
same,pKd,"DLG4_1, P78352; [1]",4.83
same,pKd,"FRMPD2_1, Q68DX3; [1]",below the threshold
same,pKd,"FRMPD2_2, Q68DX3; [1]",3.5
same,pKd,"FRMPD2_3, Q68DX3; [1]",below the threshold
same,pKd,"GORASP1, Q9BQQ3; [1]",below the threshold
same,pKd,"GORASP2, Q9H8Y8; [1]",below the threshold
same,pKd,"GRID2IP_1, A4D2P6; [1]",below the threshold
same,pKd,"GRIP1_7, Q9Y3R0; [1]",below the threshold
same,pKd,"HTRA3, P83110; [1]",below the threshold
same,pKd,"Inadl_5, Q8NI35; [1]",below the threshold
same,pKd,"Inadl_8, Q8NI35; [1]",3.81
same,pKd,"LAP2, Q96RT1; [1]",4.37
same,pKd,"LIN7A, O14910; [1]",below the threshold
same,pKd,"MAGI1_1, Q96QZ7; [1]",below the threshold
same,pKd,"MAGI2_6, Q86UL8; [1]",4.3
same,pKd,"MAGI3_2, Q5TCQ9; [1]",5.03
same,pKd,"MPDZ_5, O75970; [1]",below the threshold
same,pKd,"NHERF3_3, Q5T2W1; [1]",below the threshold
same,pKd,"NHERF3_4, Q5T2W1; [1]",below the threshold
same,pKd,"PDZD2_2, O15018; [1]",4.83
same,pKd,"RHPN1, Q8TCX5; [1]",3.76
same,pKd,"SCRIB_2, Q14160; [1]",4.9
same,pKd,"SNTB1, Q13884; [1]",5.12
same,pKd,"TJP1_2, Q07157; [1]",below the threshold
"NTLNRKTTPV [CACNG8, Q8WXS5]",pKd,"CASK, O14936; [1]",below the threshold
same,pKd,"DLG3_1, Q92796; [1]",3.58
same,pKd,"DLG3_2, Q92796; [1]",4.59
same,pKd,"DLG4_1, P78352; [1]",4.4
same,pKd,"FRMPD2_1, Q68DX3; [1]",below the threshold
same,pKd,"FRMPD2_2, Q68DX3; [1]",3.85
same,pKd,"FRMPD2_3, Q68DX3; [1]",below the threshold
same,pKd,"GORASP1, Q9BQQ3; [1]",below the threshold
same,pKd,"GORASP2, Q9H8Y8; [1]",below the threshold
same,pKd,"GRID2IP_1, A4D2P6; [1]",below the threshold
same,pKd,"GRIP1_7, Q9Y3R0; [1]",3.49
same,pKd,"HTRA3, P83110; [1]",below the threshold
same,pKd,"Inadl_5, Q8NI35; [1]",below the threshold
same,pKd,"Inadl_8, Q8NI35; [1]",4.2
same,pKd,"LAP2, Q96RT1; [1]",below the threshold
same,pKd,"LIN7A, O14910; [1]",below the threshold
same,pKd,"MAGI1_1, Q96QZ7; [1]",below the threshold
same,pKd,"MAGI2_6, Q86UL8; [1]",below the threshold
same,pKd,"MAGI3_2, Q5TCQ9; [1]",5.05
same,pKd,"MPDZ_5, O75970; [1]",below the threshold
same,pKd,"NHERF3_3, Q5T2W1; [1]",below the threshold
same,pKd,"NHERF3_4, Q5T2W1; [1]",3.66
same,pKd,"PDZD2_2, O15018; [1]",3.81
same,pKd,"RHPN1, Q8TCX5; [1]",below the threshold
same,pKd,"SCRIB_2, Q14160; [1]",3.62
same,pKd,"SNTB1, Q13884; [1]",4.07
same,pKd,"TJP1_2, Q07157; [1]",below the threshold
"TQKFRASTAL [FRMPD1, Q5SYB0]",pKd,"CASK, O14936; [2]",below the threshold
same,pKd,"DLG3_1, Q92796; [2]",below the threshold
same,pKd,"DLG3_2, Q92796; [2]",below the threshold
same,pKd,"DLG4_1, P78352; [2]",3.48
same,pKd,"FRMPD2_1, Q68DX3; [2]",3.77
same,pKd,"FRMPD2_2, Q68DX3; [2]",below the threshold
same,pKd,"FRMPD2_3, Q68DX3; [2]",below the threshold
same,pKd,"GORASP1, Q9BQQ3; [2]",3.51
same,pKd,"GORASP2, Q9H8Y8; [2]",below the threshold
same,pKd,"GRID2IP_1, A4D2P6; [2]",below the threshold
same,pKd,"GRIP1_7, Q9Y3R0; [2]",below the threshold
same,pKd,"HTRA3, P83110; [2]",below the threshold
same,pKd,"Inadl_5, Q8NI35; [2]",below the threshold
same,pKd,"Inadl_8, Q8NI35; [2]",below the threshold
same,pKd,"LAP2, Q96RT1; [2]",below the threshold
same,pKd,"LIN7A, O14910; [2]",below the threshold
same,pKd,"MAGI1_1, Q96QZ7; [2]",below the threshold
same,pKd,"MAGI2_6, Q86UL8; [2]",below the threshold
same,pKd,"MAGI3_2, Q5TCQ9; [2]",4.28
same,pKd,"MPDZ_5, O75970; [2]",below the threshold
same,pKd,"NHERF3_3, Q5T2W1; [2]",below the threshold
same,pKd,"NHERF3_4, Q5T2W1; [2]",4.54
same,pKd,"PDZD2_2, O15018; [2]",below the threshold
same,pKd,"RHPN1, Q8TCX5; [2]",3.79
same,pKd,"SCRIB_2, Q14160; [2]",below the threshold
same,pKd,"SNTB1, Q13884; [2]",below the threshold
same,pKd,"TJP1_2, Q07157; [2]",below the threshold

# — article PMC9482650, “Quantitative fragmentomics allow affinity mapping of interactomes” (Nature Communications, 2022)
